One molecule from patent CN113912720A (BLOOD DISEASES HOSPITAL CHINESE ACADEMY OF MEDICAL SCIENCES …, dated 2022) can be followed below.

This assay concerns the target T1, 人BCMA蛋白 (on 3T3-BCMA cells) (human, UniProt Q02223 1-54).
T1 construct: extracellular domain; also called 3T3-BCMA细胞表面BCMA蛋白; CD269
T1 sequence (looked up): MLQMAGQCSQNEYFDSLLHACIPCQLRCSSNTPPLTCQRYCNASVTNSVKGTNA
Put plainly: Flow cytometry: PE-labelled 69G8 titrated from 400 nM to 0.025 nM on 3T3-BCMA cells; mean fluorescence fitted with GraphPad Prism 7.

B1: 抗人BCMA单克隆抗体69G8 (antibody, V domains shown)
VH: QVQLQQSGAEVVRPGTSVKVSCKASGYAFTNYLIEWVKQRPGQGPEWIGVITPGRGDTKYNAKFAGKATLTADKSSSTAYMQLSSLTFDDSAVYFCARGTTAWFPYWGQGTLVTVSA
VL: DIVLTQSPASLTVSLGQRATISCRASKSVSTSGYSYMHWYQQKPRQPPKLLIYLASNLESGVPARFSGSGSGTDFTLNIHPVEEEDAATYYCQHSRDLPYTFGGGTKLEIKR
notes: also called 69G8抗体; PE标记抗体69G8
Take B1: binding was put at a Kd of 13.8 nM.
